Experimental data published in US20250215104A1 (WALDEN BIOSCIENCES, published 2025).

Columns and labels:
[1] = biological target: T1, human soluble urokinase plasminogen activator receptor (suPAR) (human, UniProt Q03405 23-303, limits assumed); experiment: BLI (Octet) off-rate screen of scFv clones
T1 construct: Column head says only 'human'; also called hsuPAR; human suPAR

[2] = biological target: T2, cynomolgus soluble urokinase plasminogen activator receptor (suPAR) (cynomolgus, UniProt Q9GK78 23-303, limits assumed); experiment: BLI (Octet) off-rate screen of scFv clones
T2 construct: Column head says only 'cynomologus'; also called cynomolgus suPAR; cynomolgus uPAR
T2 sequence (Q9GK78 23-303 limits assumed): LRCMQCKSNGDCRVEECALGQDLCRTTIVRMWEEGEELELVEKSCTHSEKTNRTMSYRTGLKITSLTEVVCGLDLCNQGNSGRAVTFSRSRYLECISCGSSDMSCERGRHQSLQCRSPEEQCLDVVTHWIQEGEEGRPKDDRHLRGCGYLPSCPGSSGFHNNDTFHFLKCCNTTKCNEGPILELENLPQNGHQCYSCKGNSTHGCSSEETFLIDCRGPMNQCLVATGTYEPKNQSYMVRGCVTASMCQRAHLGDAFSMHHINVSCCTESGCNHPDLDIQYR

T1 sequence (Q03405 23-303 limits assumed): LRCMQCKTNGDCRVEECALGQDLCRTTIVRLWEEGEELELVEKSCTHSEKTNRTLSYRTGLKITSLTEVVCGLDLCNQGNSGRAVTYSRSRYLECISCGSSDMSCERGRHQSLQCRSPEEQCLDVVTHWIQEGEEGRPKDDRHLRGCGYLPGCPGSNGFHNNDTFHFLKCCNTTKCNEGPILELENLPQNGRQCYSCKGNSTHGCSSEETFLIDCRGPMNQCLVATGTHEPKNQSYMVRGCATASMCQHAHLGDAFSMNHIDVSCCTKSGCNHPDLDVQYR

koff [1] [s⁻¹] | koff [2] [s⁻¹] | Binder
0.00307 | 9.8e-05 | suPAR_DB05_A08 (scFv, V domains shown, Screened as scFv) VH: QVQLVQSGAEVKKPGASVKVSCKASGYTFTNYYMHWVRQAPGQGLEWMGWIDSNSGGTNYAQKFQGRVTMTRDTSTSTVYMELSSLRSEDTAVYYCARGYDVDWFVYWGQGTLVTVSS VL: DIQMTQSPSSLSASVGDRVTITCSARSSVSYMYWYQQKPGKAPKLLIYRTSNLASGVPSRFSGSGSGTDFTLTISSLQPEDFATYYCQQYHSYPPTFGGGTKVEIK
0.00284 | 0.000548 | suPAR_DB05_C08 (scFv, V domains shown, Screened as scFv) VH: QVQLVQSGAEVKKPGASVKVSCKASGYTFTSYYMHWVRQAPGQGLEWMGWIDPENGNTIYDQKFQGRVTMTRDTSTSTVYMELSSLRSEDTAVYYCARGYDVDWFVYWGQGTLVTVSS VL: DIQMTQSPSSLSASVGDRVTITCRARQSVSYMYWYQQKPGKAPKLLIYRTSNLASGVPSRFSGSGSGTDFTLTISSLQPEDFATYYCQQYHSYPPTFGGGTKVEIK
0.00375 | 0.00061 | suPAR_DB05_C02 (scFv, V domains shown, Screened as scFv) VH: QVQLVQSGAEVKKPGASVKVSCKASGDTFTSYYMHWVRQAPGQGLEWMGWIDPSNGNTIYDQKFQGRVTMTRDTSTSTVYMELSSLRSEDTAVYYCARGYDVDWFVYWGQGTLVTVSS VL: DIQMTQSPSSLSASVGDRVTITCSARSSVSYMYWYQQKPGKAPKLLIYRTSNLASGVPSRFSGSGSGTDFTLTISSLQPEDFATYYCQQYHSYPPTFGGGTKVEIK
0.00547 | 0.000202 | suPAR_DB05_C05 (scFv, V domains shown, Screened as scFv) VH: QVQLVQSGAEVKKPGASVKVSCKASGYNIKSYYIHWVRQAPGQGLEWMGWIDPNSGGTNYAQNFQGRVTMTRDTSTSTVYMELSSLRSEDTAVYYCARGYDVDWFVYWGQGTLVTVSS VL: DIQMTQSPSSLSASVGDRVTITCSARSSVSYMYWYQQKPGKAPKLLIYRTSNLASGVPSRFSGSGSGTDFTLTISSLQPEDFATYYCQQYHSYPPTFGGGTKVEIK
0.0018 | 0.000311 | suPAR_DB05_A11 (scFv, V domains shown, Screened as scFv) VH: QVQLVQSGAEVKKPGASVKVSCKASGYTFTGYYMHWVRQAPGQGLEWMGWIDPNSGGTNYAQKFQGRVTMTRDTSTSTVYMELSSLRSEDTAVYYCARGYDVDWFVYWGQGTLVTVSS VL: DIQMTQSPSSLSASVGDRVTITCSARSSVSYMYWYQQKPGKAPKLLIYRTSNLASGVPSRFSGSGSGTDFTLTISSLQPEDFATYYCQQYHSYPPTFGGGTKVEIK
0.00367 | 0.000455 | suPAR_DB05_C03 (scFv, V domains shown, Screened as scFv) VH: QVQLVQSGAEVKKPGASVKVSCKASGYTFTNYYMHWVRQAPGQGLEWMGWIDHEGGNTSYAQKFQGRVTMTRDTSTSTVYMELSSLRSEDTAVYYCARGYDVDWFVYWGQGTLVTVSS VL: DIQMTQSPSSLSASVGDRVTITCRARSSVSYMYWYQQKPGKAPKLLIYRTSNLASGVPSRFSGSGSGTDFTLTISSLQPEDFATYYCQQYHSYPPTFGGGTKVEIK
0.00384 | 0.000464 | suPAR_DB05_C09 (scFv, V domains shown, Screened as scFv) VH: QVQLVQSGAEVKKPGASVKVSCKASGYTFTGYYMHWVRQAPGQGLEWMGWISPDSGATKVAQKFQGRVTMTRDTSTSTVYMELSSLRSEDTAVYYCARGYDVDWFVYWGQGTLVTVSS VL: DIQMTQSPSSLSASVGDRVTITCSARSSVSYMYWYQQKPGKAPKLLIYRTSNLASGVPSRFSGSGSGTDFTLTISSLQPEDFATYYCQQYHSYPPTFGGGTKVEIK
0.00335 | 0.000168 | suPAR_DB05_C11 (scFv, V domains shown, Screened as scFv) VH: QVQLVQSGAEVKKPGASVKVSCKASGYIFTSYYMHWVRQAPGQGLEWMGWIDPYSGATNYAQKFQGRVTMTRDTSTSTVYMELSSLRSEDTAVYYCARGYDVDWFVYWGQGTLVTVSS VL: DIQMTQSPSSLSASVGDRVTITCRARSSISYMYWYQQKPGKAPKLLIYRTSNLASGVPSRFSGSGSGTDFTLTISSLQPEDFATYYCQQYHSYPPTFGGGTKVEIK
0.00541 | 0.000462 | suPAR_DB05_A10 (scFv, V domains shown, Screened as scFv) VH: QVQLVQSGAEVKKPGASVKVSCKASGYTFTNYYIHWVRQAPGQGLEWMGWIDPSNGNTIYDQKFQGRVTMTRDTSTSTVYMELSSLRSEDTAVYYCARGYDVDWFVYWGQGTLVTVSS VL: DIQMTQSPSSLSASVGDRVTITCSARSSVSYMYWYQQKPGKAPKLLIYRTSNLASGVPSRFSGSGSGTDFTLTISSLQPEDFATYYCQQYHSYPPTFGGGTKVEIK
0.00219 | 0.000431 | suPAR_DB05_B11 (scFv, V domains shown, Screened as scFv) VH: QVQLVQSGAEVKKPGASVKVSCKASGYTFSAYYMHWVRQAPGQGLEWMGWIDHENGNTIYAQKFQGRVTMTRDTSTSTVYMELSSLRSEDTAVYYCARGYDVDWFVYWGQGTLVTVSS VL: DIQMTQSPSSLSASVGDRVTITCSARSSVSYMYWYQQKPGKAPKLLIYRTSNLASGVPSRFSGSGSGTDFTLTISSLQPEDFATYYCQQYHSYPPTFGGGTKVEIK
0.00565 | 0.000419 | suPAR_DB05_B02 (scFv, V domains shown, Screened as scFv) VH: QVQLVQSGAEVKKPGASVKVSCKASGYTIKDYYIHWVRQAPGQGLEWMGWIDPENGNTIYAQKFQGRVTMTRDTSTSTVYMELSSLRSEDTAVYYCARGYDVDWFVYWGQGTLVTVSS VL: DIQMTQSPSSLSASVGDRVTITCSARSSVSYMYWYQQKPGKAPKLLIYRTSNLASGVPSRFSGSGSGTDFTLTISSLQPEDFATYYCQQYHSYPPTFGGGTKVEIK
0.00356 | 0.000232 | suPAR_DB05_B01 (scFv, V domains shown, Screened as scFv) VH: QVQLVQSGAEVKKPGASVKVSCKASGYPFTSYYMHWVRQAPGQGLEWMGWIDHENGNTIYDQKFQGRVTMTRDTSTSTVYMELSSLRSEDTAVYYCARGYDVDWFVYWGQGTLVTVSS VL: DIQMTQSPSSLSASVGDRVTITCSASSSVSYMYWYQQKPGKAPKLLIYRTSNLASGVPSRFSGSGSGTDFTLTISSLQPEDFATYYCQQYHSYPPTFGGGTKVEIK
0.00623 | 0.000606 | suPAR_DB05_B04 (scFv, V domains shown, Screened as scFv) VH: QVQLVQSGAEVKKPGASVKVSCKASGYTFTTYYMHWVRQAPGQGLEWMGWIDPSNGNTIYDQKFQGRVTMTRDTSTSTVYMELSSLRSEDTAVYYCARGYDVDWFVYWGQGTLVTVSS VL: DIQMTQSPSSLSASVGDRVTITCSARSSVSYMYWYQQKPGKAPKLLIYRTSNLASGVPSRFSGSGSGTDFTLTISSLQPEDFATYYCQQYHSYPPTFGGGTKVEIK
0.00431 | 0.000237 | suPAR_DB05_C07 (scFv, V domains shown, Screened as scFv) VH: QVQLVQSGAEVKKPGASVKVSCKASGYTFTSHYVHWVRQAPGQGLEWMGWIDHEGGSTSYDQKFQGRVTMTRDTSTSTVYMELSSLRSEDTAVYYCARGYDVDWFVYWGQGTLVTVSS VL: DIQMTQSPSSLSASVGDRVTITCRARQSVSYMYWYQQKPGKAPKLLIYRTSNLASGVPSRFSGSGSGTDFTLTISSLQPEDFATYYCQQYHSYPPTFGGGTKVEIK
0.00366 | 0.000311 | suPAR_DB05_B03 (scFv, V domains shown, Screened as scFv) VH: QVQLVQSGAEVKKPGASVKVSCKASGYTFTSYYIHWVRQAPGQGLEWIGWMDPNSGSAAYAQKFQGRVTMTRDTSTSTVYMELSSLRSEDTAVYYCARGYDVDWFVYWGQGTLVTVSS VL: DIQMTQSPSSLSASVGDRVTITCSARSSVSYMYWYQQKPGKAPKLLIYRTSNLASGVPSRFSGSGSGTDFTLTISSLQPEDFATYYCQQYHSYPPTFGGGTKVEIK
0.00452 | 0.000457 | suPAR_DB05_C04 (scFv, V domains shown, Screened as scFv) VH: QVQLVQSGAEVKKPGASVKVSCKASGFNIKDYYIHWVRQAPGQGLEWMGWIDPENGNTIYDQKFQGRVTMTRDTSTSTVYMELSSLRSEDTAVYYCARGYDVDWFVYWGQGTLVTVSS VL: DIQMTQSPSSLSASVGDRVTITCSARQSVSYMYWYQQKPGKAPKLLIYRTSNLQSGVPSRFSGSGSGTDFTLTISSLQPEDFATYYCQQYHSYPPTFGGGTKVEIK
0.00273 | 0.000583 | suPAR_DB05_B09 (scFv, V domains shown, Screened as scFv) VH: QVQLVQSGAEVKKPGASVKVSCKASGYTFTGYYMHWVRQAPGQGLEWMGWIDPSGGNTIYDQKFQGRVTMTRDTSTSTVYMELSSLRSEDTAVYYCARGYDVDWFVYWGQGTLVTVSS VL: DIQMTQSPSSLSASVGDRVTITCSARSSVSYMYWYQQKPGKAPKLLIYRTSNLASGVPSRFSGSGSGTDFTLTISSLQPEDFATYYCQQYHSYPPTFGGGTKVEIK
0.00417 | 0.000193 | suPAR_DB05_B05 (scFv, V domains shown, Screened as scFv) VH: QVQLVQSGAEVKKPGASVKVSCKASGNTFSGYYVHWVRQAPGQGLEWMGWIDPSNGNTIYDQKFQGRVTMTRDTSTSTVYMELSSLRSEDTAVYYCARGYDVDWFVYWGQGTLVTVSS VL: DIQMTQSPSSLSASVGDRVTITCSARSSVSYMYWYQQKPGKAPKLLIYRTSNLASGVPSRFSGSGSGTDFTLTISSLQPEDFATYYCQQYHSYPPTFGGGTKVEIK
0.00488 | 0.000129 | suPAR_DB05_B08 (scFv, V domains shown, Screened as scFv) VH: QVQLVQSGAEVKKPGASVKVSCKASGNAFSGHYVHWVRQAPGQGLEWMGWIDHENGNTIYAQKFQGRVTMTRDTSTSTVYMELSSLRSEDTAVYYCARGYDVDWFVYWGQGTLVTVSS VL: DIQMTQSPSSLSASVGDRVTITCSARQSVSYMYWYQQKPGKAPKLLIYRTSNLASGVPSRFSGSGSGTDFTLTISSLQPEDFATYYCQQYHSYPPTFGGGTKVEIK
0.00507 | 0.000123 | suPAR_DB05_C06 (scFv, V domains shown, Screened as scFv) VH: QVQLVQSGAEVKKPGASVKVSCKASGFNIKSYYIHWVRQAPGQGLEWMGWIDPNSGGTNYAQKFQGRVTMTRDTSTSTVYMELSSLRSEDTAVYYCARGYDVDWFVYWGQGTLVTVSS VL: DIQMTQSPSSLSASVGDRVTITCSARSSVSYMYWYQQKPGKAPKLLIYRTSNLASGVPSRFSGSGSGTDFTLTISSLQPEDFATYYCQQYHSYPPTFGGGTKVEIK
0.00213 | 0.000234 | suPAR_DB05_B06 (scFv, V domains shown, Screened as scFv) VH: QVQLVQSGAEVKKPGASVKVSCKASGYPFTNYYMHWVRQAPGQGLEWMGWIDHEGGSTIYDQKFQGRVTMTRDTSTSTVYMELSSLRSEDTAVYYCARGYDVDWFVYWGQGTLVTVSS VL: DIQMTQSPSSLSASVGDRVTITCSASQSVSYMYWYQQKPGKAPKLLIYRTSNLASGVPSRFSGSGSGTDFTLTISSLQPEDFATYYCQQYHSYPPTFGGGTKVEIK
